Measurements: patent US5817484A, “Thermoresistant α-1-antitrypsin mutein” (priority 1993, dated 1998)

Assays:
elastase [1] = assay: Thermal stability at 55° C. of AT expressed in E. coli, elastase inhibiting activity measured every minute; assay type: physicochemical; details: FIG. 8
Protocol: The activity of AT was measured by evaluating the inhibition by AT of the elastase's activity to degrade peptides in accordance with the procedure described by Travis & Johnson in Methods in Enzymol., 80, 754 (1981). Specifically, the AT's activity to inhibit elastase was evaluated by: mixing elastase and AT extract to react them, adding thereto a substrate (prepared by dissolving succinyl-alanyl-alanyl-alanyl-para-nitroanilide (SIGMA S4760) in dimethyl sulfoxide) and measuring the change of absorbency at 410 nm to determine the residual elastase activity. The thermal stability of AT was estimated by determining its activity of inhibiting elastase, using AT treated at 55° C. in case cell extract is used or at 57° to 58° C. in case a purified AT is used. […]
The elastase inhibiting activity of AT was evaluated by using a modified method described by Travis et al. (Travis & Jonhson, Methods in Enzymol. 80, 754 (1981)). […]
(§1) The elastase inhibiting activity of AT was determined as follows: 10 μl of the enzyme solution, 10 to 50 μl of the AT extracts and the reaction buffer solution were mixed to make the final volume of 60 μl, and then reacted for 10 mins. After 430 μl of the reaction buffer solution and 10 μl of the substrate were added thereto, the change of absorbency at 410 nm was immediately measured for 3 mins.

elastase [2] = assay: Thermal inactivation of purified AT at 57-58° C., remaining elastase inhibiting activity; assay type: physicochemical; details: for half-life: purified AT
Protocol: (§2) The activity of AT was measured by evaluating the inhibition by AT of the elastase's activity to degrade peptides in accordance with the procedure described by Travis & Johnson in Methods in Enzymol., 80, 754 (1981). Specifically, the AT's activity to inhibit elastase was evaluated by: mixing elastase and AT extract to react them, adding thereto a substrate (prepared by dissolving succinyl-alanyl-alanyl-alanyl-para-nitroanilide (SIGMA S4760) in dimethyl sulfoxide) and measuring the change of absorbency at 410 nm to determine the residual elastase activity. The thermal stability of AT was estimated by determining its activity of inhibiting elastase, using AT treated at 55° C. in case cell extract is used or at 57° to 58° C. in case a purified AT is used. As controls, a wild-type AT produced in E. coli or yeast cell and natural AT isolated and purified from human plasma were used.
The elastase inhibiting activity of AT was evaluated by using a modified method described by Travis et al. (Travis & Jonhson, Methods in Enzymol. 80, 754 (1981)). As a reaction buffer, 50 mM Tris (pH 8.0) containing 50 mM NaCl was used, and 15 mM succinyl-alanyl-alanyl-alanyl-paranitro-anilide (SIGMA S4760) dissolved in dimethyl-sulfoxide was used as a substrate for elastase. An enzyme solution was prepared by dissolving elastase to the concentration of 0.3 μM in the reaction buffer solution containing 50% glycerol.
as §1
For the comparison of their thermal stability, various kinds of AT muteins were incubated at 57° C., from which samples were taken every minute. Then the remaining activity of AT muteins was determined in the same manner as described in Example 1 above and their half-life and thermal inactivation rate were calculated from the slope of the plot of a logalithmic value of the remaining activity vs time (see FIG. 3).

elastase [3] = assay: Association constant to elastase (Beatty's method); assay type: biochemical
Protocol: as §2, with “Specifically,” for “The activity of AT was measured by evaluating the inhibition by AT of the elastase's activity to degrade peptides in accordance with the procedure described by Travis & Johnson in Methods in Enzymol., 80, 754 (1981). Specifically,”
From the reaction mixture containing the same concentrations (8 nM) of elastase and AT, samples of the mixture were taken every minute for 10 mins. 1 mM succinyl-alanyl-alanyl-alanyl-p-nitroanilide (SIGMAS4760) was added as a substrate to each sample. The elastase activity of each sample was determined by measuring the absorbency at 410 nm, and then the association constant was calculated from the plot slope of reciprocal of elastase concentration vs time.

[4] = Table II, ATs produced in yeast and controls

Row | association constant (elastase [3]; Table I, 8 nM elastase and 8 nM AT, purified AT) [M⁻¹ s⁻¹] | Substance | thermoresistance, times higher than the single mutant ATs (elastase [1]) | thermal resistance, times higher than that of the wild-type recombinant AT expressed in E. coli (elastase [2]; at 58° C.) [times] | thermal resistance (in words) (elastase [2]; at 58° C., produced in yeast) | half-life (elastase [2]; at 58° C.) [min] | association constant (elastase [3]; [4]) [M⁻¹ s⁻¹] | half-life (elastase [2]; at 57° C.) [min]
1 |  | multiple mutant AT wherein the 51st residue is leucine and the 374th is isoleucine: α-1-antitrypsin with two replacements: 51st leucine and 374th isoleucine, expressed in E. coli | at least 300 times |  |  |  |  | 
2 |  | wild-type yeast AT (phenylalanine): wild-type α-1-antitrypsin produced in Saccharomyces diastaticus (pGAT11) |  | 5.3 | a lower thermoresistance than that of the human plasma AT | 6.9 | 1.5e+06 | 
3 | 1.7e+06 | Human plasma AT: natural α-1-antitrypsin from human plasma (A9204), purified over Affi-Gel Blue and mono-Q columns |  |  |  | 35.2 | 1.7e+06 | 49.7
